The target in assay [1] is DCC C-tail ΔP3 protein (residues 1121-1424) (H. sapiens) (UniProt P43146). Put plainly: other fluorescence titration; initial fluorescence read on the MST instrument; Cy5-labelled ΔP3 at 5 nM, 60S subunits titrated from 5 uM to 0.15 nM; 20 mM Tris-HCl pH 7.5, 100 mM KCl, 2 mM Mg(OAc)2, 1 mM DTT, 0.5 mM EDTA, 0.25 M sucrose; 25 °C; 1:1 binding model; KD values called relative.

Assay [2] deals with DCC C-tail ΔN29+P1 protein (residues 1168-1447) (H. sapiens) (UniProt P43146). Put plainly: MST; Cy5-labelled DCC protein (target) at 5 nM, purified 60S subunits (ligand) titrated from 5 uM to 0.15 nM over 16 capillaries; 20 mM Tris-HCl pH 7.5, 100 mM KCl, 2 mM Mg(OAc)2, 1 mM DTT, 0.5 mM EDTA, 0.25 M sucrose; 25 °C; 1:1 binding model; KD values called relative, not absolute (limited by 60S solubility).

Assay [3] concerns the target DCC C-tail N29+P1 protein (residues 1121-1167) (H. sapiens) (UniProt P43146). The description is as above.
Assay [4] concerns the target 60S ribosomal subunit (rabbit) (rabbit (endogenous in reticulocyte lysate)) (UniProt P19949).
The target is the same in assay [5]. This is another data set of the same source.

Sequence of DCC C-tail N29+P1 protein (residues 1121-1167) (H. sapiens) (P43146 1121-1167): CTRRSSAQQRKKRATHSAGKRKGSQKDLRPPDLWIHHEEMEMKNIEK
Sequence of DCC C-tail N29+P1 protein (residues 1121-1167) (P43146 1121-1167): as above
Sequence of DCC C-tail ΔP3 protein (residues 1121-1424) (H. sapiens) (P43146 1121-1424, stated change not applied): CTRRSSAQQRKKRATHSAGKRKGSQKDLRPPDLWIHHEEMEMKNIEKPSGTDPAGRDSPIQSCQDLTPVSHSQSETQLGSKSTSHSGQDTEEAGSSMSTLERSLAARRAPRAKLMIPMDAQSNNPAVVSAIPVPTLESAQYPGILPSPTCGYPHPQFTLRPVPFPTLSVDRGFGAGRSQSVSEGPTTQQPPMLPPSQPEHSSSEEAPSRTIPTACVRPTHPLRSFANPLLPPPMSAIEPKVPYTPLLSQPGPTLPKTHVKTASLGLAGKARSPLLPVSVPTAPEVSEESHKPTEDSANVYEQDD
Sequence of DCC C-tail ΔP3 protein (residues 1121-1424) (P43146 1121-1424, stated change not applied): as above
Sequence of DCC C-tail ΔN29+P1 protein (residues 1168-1447) (H. sapiens) (P43146 1168-1447, stated change not applied): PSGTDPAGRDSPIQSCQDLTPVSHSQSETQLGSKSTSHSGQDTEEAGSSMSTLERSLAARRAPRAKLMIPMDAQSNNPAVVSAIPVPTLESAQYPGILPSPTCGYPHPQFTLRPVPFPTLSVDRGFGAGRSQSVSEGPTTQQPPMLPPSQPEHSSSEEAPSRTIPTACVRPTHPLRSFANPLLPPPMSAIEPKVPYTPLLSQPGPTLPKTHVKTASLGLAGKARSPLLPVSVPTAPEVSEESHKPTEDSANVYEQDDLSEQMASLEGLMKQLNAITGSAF

As to “60S ribosomal subunit (rabbit) (from UniProt P19949 1-297) (complex)”, the Kd in assay [1] was 68.4 nM; in assay [2], 285 nM; in assay [3] it was 80.1 nM.
In turn, “DCC C-tail N29+P1 KRK→AAA protein (residues 1121-1167, alanines at 1140 to 1142) (from UniProt P43146 1121-1167) (domain or fragment)” showed a decrease of in vitro translation of a luciferase reporter mRNA in rabbit reticulocyte lysate by the DCC protein (3 and 6 μM) (% decrease of translation) in assay [4] of 20.
Same read-out and setting: the result for “DCC C-tail N29+P1 protein (residues 1121-1167) (from UniProt P43146 1121-1167) (domain or fragment)” reads 90.
In assay [5], “DCC C-tail ΔP3 protein (residues 1121-1424) (from UniProt P43146 1121-1424) (domain or fragment)” yielded an inhibition of in vitro translation of a luciferase reporter mRNA in rabbit reticulocyte lysate by 3 μM DCC protein (% inhibition of translation) of 92.

The record behind these values is PMC12556795.
